Reference: US9988424 (DUKE UNIVERSITY, dated 2018)
Changes are numbered by the printed parent chain. Read-outs that look alike come from different tables or passages of the source.

B1: CH59 (antibody, V domains shown)
VH: EVQLVESGGGLVQPGRSLRLSCAASGFTFDDGAMHWVRQAPGKGLEWVSGISWNSNIIAYADSVKGRFTISRDNAKNSLYLEMNSLRVEDTALYYCAKDSPRGELPLNYWGQGTLVTVSS
VL: SYELTQPPSVSVSPGQTARITCSGDALPKNYAYWYQQKSGQAPVLVIYEDSKRPSGIPERFSGSSSGTMATLTISGAQVEDEADYYCYSTDSSGNHRVFGGGTKLTVL
notes: also called mAb CH59
B2: CH59 reverted unmutated ancestor antibody (antibody, V domains shown)
VH: B1 VH with G32Y, N56G, I57S, A59G, E82Q, V88A, L107F, N108D
VL: B1 VL with N30K
notes: also called CH59 RUA; CH59_RUA
B3: 697D (antibody, V domains shown)
VH: QVQLVQSGAEVKKPGSSVKVSCKASGGNFNTYTISWVRQAPGQGLEWMGRIIPIFGIVNPAQKFPGRVTINVDKSTNTAYMELSSLRSEDTAVYYCATSGVGLHFGYFDYWGQGTQVTVSS
VL: QSVLTQPPSVSGAPGQRVTISCTGSSSNIGAHYDVHWYQQLPGTAPKLLIYGNSNRPSGVPDRFSGSKSGTSASLAITGLQAEDEADYYCQSYDSSLSGYVFGTGTKVTVL
notes: also called mAb 697D; V2 conformational mAb 697D
B4: PG16 (antibody, V domains shown)
VH: QEQLVESGGGVVQPGGSLRLSCLASGFTFHKYGMHWVRQAPGKGLEWVALISDDGMRKYHSDSMWGRVTISRDNSKNTLYLQFSSLKVEDTAMFFCAREAGGPIWHDDVKYYDFNDGYYNYHYMDVWGKGTTVTVSS
VL: QSALTQPASVSGSPGQTITISCNGTSSDVGGFDSVSWYQQSPGKAPKVMVFDVSHRPSGISNRFSGSKSGNTASLTISGLHIEDEGDYFCSSLTDRSHRIFGGGTKVTVL
notes: also called mAb PG16; bnAb PG16

How the values were obtained:
C.CAP206 gp140CF.12 = C.CAP206 gp140CF.12 (HIV-1); test: ELISA
AE.A244 V1V2 Tags [1] = biological target: AE.A244 V1V2 Tags (HIV-1); test: ELISA
AE.A244 gp120 delta 11 = biological target: T1, AE.A244 gp120 delta 11 (HIV-1); test: ELISA
T1 construct: also called E.A244gp120Δ11; AE.A244 Δ11 gp120

C.1086 V1V2 Tags [2] = biological target: C.1086 V1V2 Tags (HIV-1); test: ELISA
gp70 C.1086 V1/V2 [3] = biological target: T2, gp70 C.1086 V1/V2 (HIV-1 V1V2 on murine leukemia virus gp70); test: ELISA
T2 construct: also called C.gp70 1086C V1V2; C.1086gp70V1V2
T2 chain: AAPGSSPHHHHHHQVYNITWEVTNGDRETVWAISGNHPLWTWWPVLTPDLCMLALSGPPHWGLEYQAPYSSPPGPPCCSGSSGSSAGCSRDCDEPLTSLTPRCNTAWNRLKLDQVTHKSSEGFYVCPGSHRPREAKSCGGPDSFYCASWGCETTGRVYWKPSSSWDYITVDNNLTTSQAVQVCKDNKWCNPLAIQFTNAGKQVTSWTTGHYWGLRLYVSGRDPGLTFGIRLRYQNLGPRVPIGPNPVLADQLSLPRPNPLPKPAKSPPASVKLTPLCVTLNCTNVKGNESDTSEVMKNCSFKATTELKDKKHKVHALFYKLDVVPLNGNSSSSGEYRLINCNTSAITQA

AE.A244 V1V2 Tags [4] = biological target: AE.A244 V1V2 Tags (HIV-1); test: ELISA; remark: listed apart in the source
[5] = biological target: T3, gp70 B.CaseA2 V1/V2/V169K (HIV-1 V1V2 on murine leukemia virus gp70); test: ELISA
T3 chain: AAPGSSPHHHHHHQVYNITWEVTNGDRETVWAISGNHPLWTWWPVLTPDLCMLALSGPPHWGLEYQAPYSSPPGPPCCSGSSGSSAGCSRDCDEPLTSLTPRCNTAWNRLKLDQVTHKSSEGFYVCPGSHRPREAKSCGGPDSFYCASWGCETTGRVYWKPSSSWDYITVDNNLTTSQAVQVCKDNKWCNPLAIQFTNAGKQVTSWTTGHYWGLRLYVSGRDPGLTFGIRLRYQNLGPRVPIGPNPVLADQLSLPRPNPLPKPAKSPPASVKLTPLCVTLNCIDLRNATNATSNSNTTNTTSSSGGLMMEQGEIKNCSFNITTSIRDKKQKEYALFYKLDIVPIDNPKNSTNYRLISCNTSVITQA

[6] = biological target: T4, gp70 B.CaseA2 V1/V2/V169K/E172V/E173H (HIV-1 V1V2 on murine leukemia virus gp70); test: ELISA
T4 construct: also called gp70 B.CaseA2 V1/V2 Mut3
T4 chain: T3 chain with E332V, Y333H

AE.A244 V1V2 Tags [7] = biological target: AE.A244 V1V2 Tags (HIV-1); test: ELISA; remark: listed apart in the source
C.1086 V1V2 Tags [8] = biological target: C.1086 V1V2 Tags (HIV-1); test: ELISA; remark: listed apart in the source
gp70 C.1086 V1/V2 [9] = biological target: T2, gp70 C.1086 V1/V2; test: ELISA
Env of AE.92TH023 virus = Env of AE.92TH023 virus (HIV-1); test: cell-based or functional assay
Env of AE.CM244 virus = Env of AE.CM244 virus (HIV-1); test: cell-based or functional assay
[10] = biological target: Env of 92TH023 K169Q virus (HIV-1); test: cell-based or functional assay
[11] = biological target: Env of TH023.6.I181L virus (HIV-1); test: cell-based or functional assay
Env of 703357.c02 virus = Env of 703357.c02 virus (HIV-1); test: cell-based or functional assay
[12] = biological target: Env of 703357.2.Q169K virus (HIV-1); test: cell-based or functional assay
[13] = biological target: Env of 703357.2.Q169KR170Q virus (HIV-1); test: cell-based or functional assay
[14] = biological target: Env of 703357.2.I181L virus (HIV-1); test: cell-based or functional assay
[15] = biological target: Env of 703357.2.Q169KI181L virus (HIV-1); test: cell-based or functional assay
[16] = biological target: Env of 703357.2.Q169KR170QI181L virus (HIV-1); test: cell-based or functional assay
Env of 427299.c12 virus = Env of 427299.c12 virus (HIV-1); test: cell-based or functional assay
[17] = biological target: Env of 427299.c12.Q169K virus (HIV-1); test: cell-based or functional assay
[18] = biological target: Env of 427299.c12.H81L virus (HIV-1); test: cell-based or functional assay
[19] = biological target: Env of 427299.c12.KL.Q169K/I181L virus (HIV-1); test: cell-based or functional assay
[20] = biological target: Env of CM244NW.4.K169Q virus (HIV-1); test: cell-based or functional assay
[21] = biological target: Env of CM244NW.6.I181L virus (HIV-1); test: cell-based or functional assay
[22] = biological target: T5, AE.A244 V1/V2 Tags N156QN160Q (HIV-1); test: ELISA; markers as in the legend printed on D00157
T5 chain: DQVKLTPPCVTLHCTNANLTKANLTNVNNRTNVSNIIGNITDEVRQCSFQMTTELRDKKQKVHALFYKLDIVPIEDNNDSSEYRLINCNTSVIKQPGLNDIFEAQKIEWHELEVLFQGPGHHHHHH

Binder	EC50 (C.CAP206 gp140CF.12) [nM]	EC50 (AE.A244 V1V2 Tags [1]) [nM]	EC50 (AE.A244 gp120 delta 11) [nM]	EC50 (C.1086 V1V2 Tags [2]) [nM]	EC50 (gp70 C.1086 V1/V2 [3]) [nM]	EC50 (AE.A244 V1V2 Tags [4]) [nM]	binding result [5]	EC50 [6] [µg/mL]	EC50 (AE.A244 V1V2 Tags [7]) [nM]	EC50 (C.1086 V1V2 Tags [8]) [nM]	EC50 (gp70 C.1086 V1/V2 [9]) [nM]	ID50 assayed in TZM-bl cells, TH023.6 (Env of AE.92TH023 virus) [µg/mL]	ID50 assayed in TZM-bl cells, CM244.ec1 (Env of AE.CM244 virus) [µg/mL]	ID50 assayed in TZM-bl cells, TH023.6.K169Q [10] [µg/mL]	ID50 assayed in TZM-bl cells, TH023.6.I181L [11] [µg/mL]	ID50 assayed in TZM-bl cells, 703357.c02 (Env of 703357.c02 virus) [µg/mL]	ID50 assayed in TZM-bl cells, 703357.2.Q169K [12] [µg/mL]	ID50 assayed in TZM-bl cells, 703357.2.Q169KR170Q [13] [µg/mL]	ID50 assayed in TZM-bl cells, 703357.2.I181L [14] [µg/mL]	ID50 assayed in TZM-bl cells, 703357.2.Q169KI181L [15] [µg/mL]	other results
B1	> 667	0.014	0.087	0.1	0.067	0.0018	no binding	0.02	0.014	0.1	0.067	1.92	> 50	> 50	5.33	> 50	> 50	> 50	> 50	> 50	ID50 assayed in TZM-bl cells, 703357.2.Q169KR170QI181L [16]: > 50 µg/mL; ID50 assayed in TZM-bl cells, 427299.c12 (Env of 427299.c12 virus): > 50 µg/mL; ID50 assayed in TZM-bl cells, 427299.c12.Q169K [17]: > 50 µg/mL; ID50 assayed in TZM-bl cells, 427299.c12.H81L [18]: > 50 µg/mL; ID50 assayed in TZM-bl cells, 427299.c12.KL.Q169K/I181L [19]: > 50 µg/mL; ID50 assayed in TZM-bl cells, CM244NW.4.K169Q [20]: > 50 µg/mL; ID50 assayed in TZM-bl cells, CM244NW.6.I181L [21]: > 50 µg/mL
B2	–	0.13	15.5	50.1	11.3	–	–	–	0.13	50.1	11.3	> 50	> 50	> 50	> 50	> 50	> 50	> 50	> 50	> 50	ID50 assayed in TZM-bl cells, 703357.2.Q169KR170QI181L [16]: > 50 µg/mL; ID50 assayed in TZM-bl cells, 427299.c12 (Env of 427299.c12 virus): > 50 µg/mL; ID50 assayed in TZM-bl cells, 427299.c12.Q169K [17]: > 50 µg/mL; ID50 assayed in TZM-bl cells, 427299.c12.H81L [18]: > 50 µg/mL; ID50 assayed in TZM-bl cells, 427299.c12.KL.Q169K/I181L [19]: > 50 µg/mL; ID50 assayed in TZM-bl cells, CM244NW.4.K169Q [20]: > 50 µg/mL; ID50 assayed in TZM-bl cells, CM244NW.6.I181L [21]: > 50 µg/mL; EC50 (read off the curve) [22]: ~0.4 µg/mL
B3	0.1	0.1	0.23	0.23	0.067	0.6	–	0.04	0.1	0.23	0.067	–	–	–	–	–	–	–	–	–	EC50 [5]: 0.14 µg/mL
B4	16	3.7	–	–	–	5.6	no binding	–	3.7	–	–	–	–	–	–	–	–	–	–	–	binding result [6]: no binding
